Here are results for six molecules from patent US20220204643A1 (published 2022).

Common to all, as to experiment: protein array
Experiment [1] has as its target T1, RAD1 checkpoint DNA exonuclease, transcript variant 1 (human, UniProt O60671 1-282).
T1 construct: on protein array
T1 sequence: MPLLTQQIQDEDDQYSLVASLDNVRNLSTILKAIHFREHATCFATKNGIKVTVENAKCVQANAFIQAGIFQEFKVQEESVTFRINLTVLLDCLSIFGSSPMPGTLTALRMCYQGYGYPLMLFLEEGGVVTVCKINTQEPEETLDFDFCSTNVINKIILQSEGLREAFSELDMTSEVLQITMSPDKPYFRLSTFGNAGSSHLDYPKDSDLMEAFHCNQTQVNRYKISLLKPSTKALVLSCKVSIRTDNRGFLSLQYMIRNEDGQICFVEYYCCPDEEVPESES

The target of experiment [2] is T2, Microtubule associated scaffold protein 1 (human, UniProt Q9ULD2 875-1270).
T2 construct: on protein array; also called MTUS1
T2 sequence: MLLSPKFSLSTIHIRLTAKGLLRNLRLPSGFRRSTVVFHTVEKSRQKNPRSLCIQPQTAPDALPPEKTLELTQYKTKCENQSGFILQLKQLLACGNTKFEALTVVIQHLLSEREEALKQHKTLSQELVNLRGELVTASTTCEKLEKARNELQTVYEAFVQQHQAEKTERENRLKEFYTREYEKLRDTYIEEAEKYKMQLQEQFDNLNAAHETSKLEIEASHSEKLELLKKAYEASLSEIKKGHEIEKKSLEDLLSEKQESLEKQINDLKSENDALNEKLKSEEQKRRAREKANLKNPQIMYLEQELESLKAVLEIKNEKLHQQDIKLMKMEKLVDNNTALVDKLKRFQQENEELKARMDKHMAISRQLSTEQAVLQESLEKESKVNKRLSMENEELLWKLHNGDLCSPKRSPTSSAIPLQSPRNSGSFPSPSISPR

The target in experiment [3] is aldo-keto reductase family 1 member B, transcript variant 1 (human, UniProt P15121 2-316).
Experiment [4] has as its target T3, glycogen phosphorylase L, transcript variant 1 (human, UniProt P06737 2-847).
T3 construct: on protein array; also called PYGL
T3 sequence: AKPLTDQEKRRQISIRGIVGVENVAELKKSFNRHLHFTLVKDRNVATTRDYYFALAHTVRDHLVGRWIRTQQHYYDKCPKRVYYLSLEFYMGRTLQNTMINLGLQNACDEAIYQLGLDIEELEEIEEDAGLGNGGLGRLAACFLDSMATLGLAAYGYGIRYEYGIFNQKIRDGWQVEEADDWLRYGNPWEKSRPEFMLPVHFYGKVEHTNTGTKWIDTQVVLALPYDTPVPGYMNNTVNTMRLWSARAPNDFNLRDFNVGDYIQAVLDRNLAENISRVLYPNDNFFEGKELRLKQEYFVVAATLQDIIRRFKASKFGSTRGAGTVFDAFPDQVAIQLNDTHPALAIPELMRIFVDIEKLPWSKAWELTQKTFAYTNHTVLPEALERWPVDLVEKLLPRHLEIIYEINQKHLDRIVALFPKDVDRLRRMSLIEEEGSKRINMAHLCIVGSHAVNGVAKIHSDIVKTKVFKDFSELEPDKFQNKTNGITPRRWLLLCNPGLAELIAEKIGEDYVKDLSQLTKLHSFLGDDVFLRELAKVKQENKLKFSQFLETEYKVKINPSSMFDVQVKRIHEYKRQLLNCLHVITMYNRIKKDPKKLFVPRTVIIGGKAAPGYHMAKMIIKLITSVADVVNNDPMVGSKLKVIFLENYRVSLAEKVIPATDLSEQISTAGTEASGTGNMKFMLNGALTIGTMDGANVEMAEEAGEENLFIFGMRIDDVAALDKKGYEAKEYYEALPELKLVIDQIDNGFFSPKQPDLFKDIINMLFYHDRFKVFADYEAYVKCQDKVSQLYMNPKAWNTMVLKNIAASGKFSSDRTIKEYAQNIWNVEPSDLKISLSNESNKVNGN

The next experiment addresses T4, Reticulocalbin 3 (human, UniProt Q96D15 21-328).
T4 construct: on protein array; also called RCN3
T4 sequence: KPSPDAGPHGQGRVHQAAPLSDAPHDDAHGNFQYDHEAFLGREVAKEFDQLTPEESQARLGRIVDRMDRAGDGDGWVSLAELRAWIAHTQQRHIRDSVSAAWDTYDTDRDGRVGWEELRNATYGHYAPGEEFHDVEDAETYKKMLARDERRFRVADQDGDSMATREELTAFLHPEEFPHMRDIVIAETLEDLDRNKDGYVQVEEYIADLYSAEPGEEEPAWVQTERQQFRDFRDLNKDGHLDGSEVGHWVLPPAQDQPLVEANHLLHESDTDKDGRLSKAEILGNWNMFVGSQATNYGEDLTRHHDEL

Experiment [5] deals with T5, synaptotagmin 12, transcript variant X4 (human, UniProt Q8IV01 1-421).
T5 construct: on protein array; also called SYT12
T5 sequence: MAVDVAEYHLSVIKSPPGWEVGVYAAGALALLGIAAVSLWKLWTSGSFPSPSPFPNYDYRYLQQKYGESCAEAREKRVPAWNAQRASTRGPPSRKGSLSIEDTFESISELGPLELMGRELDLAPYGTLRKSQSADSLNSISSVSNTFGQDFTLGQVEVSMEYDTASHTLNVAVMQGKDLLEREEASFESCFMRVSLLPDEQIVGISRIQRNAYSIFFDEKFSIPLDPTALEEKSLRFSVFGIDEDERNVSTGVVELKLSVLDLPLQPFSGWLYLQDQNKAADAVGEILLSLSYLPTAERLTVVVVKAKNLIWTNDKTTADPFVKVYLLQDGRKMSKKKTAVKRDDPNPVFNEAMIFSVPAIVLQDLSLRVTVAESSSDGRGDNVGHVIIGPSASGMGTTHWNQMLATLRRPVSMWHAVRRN

Experiment [6] deals with T6, RNA binding motif protein 47, transcript variant X10 (human, UniProt A0AV96 1-593).
T6 construct: on protein array; also called RBM47
T6 sequence: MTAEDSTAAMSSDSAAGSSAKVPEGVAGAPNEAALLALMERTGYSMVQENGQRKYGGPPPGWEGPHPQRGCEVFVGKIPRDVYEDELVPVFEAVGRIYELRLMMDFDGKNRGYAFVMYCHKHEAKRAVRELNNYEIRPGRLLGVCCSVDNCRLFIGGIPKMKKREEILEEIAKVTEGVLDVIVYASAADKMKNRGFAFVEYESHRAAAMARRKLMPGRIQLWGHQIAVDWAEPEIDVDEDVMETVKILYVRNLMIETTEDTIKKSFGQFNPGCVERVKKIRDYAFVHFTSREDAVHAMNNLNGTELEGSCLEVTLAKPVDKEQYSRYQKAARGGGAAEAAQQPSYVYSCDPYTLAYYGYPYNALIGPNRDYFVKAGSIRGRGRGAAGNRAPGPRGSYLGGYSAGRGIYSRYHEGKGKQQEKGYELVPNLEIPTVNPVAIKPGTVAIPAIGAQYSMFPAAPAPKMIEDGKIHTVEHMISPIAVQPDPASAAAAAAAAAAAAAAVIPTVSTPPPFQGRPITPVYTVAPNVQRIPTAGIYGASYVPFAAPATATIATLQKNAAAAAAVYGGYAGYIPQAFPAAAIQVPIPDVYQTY

For experiment [7], the target named is T7, CDP-diacylglycerol synthase 1 (human, UniProt Q92903 1-461).
T7 construct: on protein array; also called CDS1
T7 sequence: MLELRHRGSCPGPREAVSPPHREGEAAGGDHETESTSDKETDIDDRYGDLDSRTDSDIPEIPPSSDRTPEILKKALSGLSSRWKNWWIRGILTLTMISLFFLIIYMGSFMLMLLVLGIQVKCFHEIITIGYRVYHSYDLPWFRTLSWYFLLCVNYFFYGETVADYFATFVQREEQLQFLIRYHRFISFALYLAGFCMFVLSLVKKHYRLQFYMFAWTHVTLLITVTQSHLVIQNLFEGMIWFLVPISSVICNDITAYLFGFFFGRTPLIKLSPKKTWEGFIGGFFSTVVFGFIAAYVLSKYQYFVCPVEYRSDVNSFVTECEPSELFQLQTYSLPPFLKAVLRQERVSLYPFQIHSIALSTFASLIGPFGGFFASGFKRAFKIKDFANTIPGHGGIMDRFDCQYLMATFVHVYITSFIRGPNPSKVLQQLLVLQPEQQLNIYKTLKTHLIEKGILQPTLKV

For experiment [8], the target named is T8, dynein axonemal assembly factor 3, transcript variant 3 (human, UniProt Q8N9W5 1-541).
T8 construct: on protein array; also called DNAAF3
T8 sequence: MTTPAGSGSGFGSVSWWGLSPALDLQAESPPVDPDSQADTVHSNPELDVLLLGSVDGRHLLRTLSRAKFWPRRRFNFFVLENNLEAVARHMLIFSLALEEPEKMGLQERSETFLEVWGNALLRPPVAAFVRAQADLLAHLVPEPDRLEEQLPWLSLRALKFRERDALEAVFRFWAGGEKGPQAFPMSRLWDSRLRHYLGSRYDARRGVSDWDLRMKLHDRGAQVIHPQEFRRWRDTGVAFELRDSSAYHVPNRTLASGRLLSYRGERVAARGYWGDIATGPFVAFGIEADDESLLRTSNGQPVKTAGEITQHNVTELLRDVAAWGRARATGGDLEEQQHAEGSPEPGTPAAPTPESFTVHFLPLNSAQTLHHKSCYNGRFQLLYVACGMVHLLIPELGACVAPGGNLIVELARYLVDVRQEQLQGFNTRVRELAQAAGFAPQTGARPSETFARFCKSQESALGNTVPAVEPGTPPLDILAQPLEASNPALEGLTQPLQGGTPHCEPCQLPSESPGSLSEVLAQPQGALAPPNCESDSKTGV

Experiment [9] deals with T9, NCCRP1, F-box associated domain containing (human, UniProt Q6ZVX7 1-275).
T9 construct: on protein array
T9 sequence: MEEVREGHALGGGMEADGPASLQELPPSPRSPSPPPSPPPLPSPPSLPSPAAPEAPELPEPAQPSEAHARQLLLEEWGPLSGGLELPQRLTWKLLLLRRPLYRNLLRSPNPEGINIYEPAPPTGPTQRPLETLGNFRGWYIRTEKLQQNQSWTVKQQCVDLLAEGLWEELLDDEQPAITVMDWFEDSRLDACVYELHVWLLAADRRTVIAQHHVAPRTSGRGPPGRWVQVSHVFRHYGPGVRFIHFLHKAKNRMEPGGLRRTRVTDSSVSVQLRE

For experiment [10], the target named is T10, coiled-coil domain containing 102A, transcript variant X1 (human, UniProt Q96A19 1-550).
T10 construct: on protein array; also called CCDC102A
T10 sequence (Q96A19 other isoform, or with tags, fused parts or gaps mutant limits assumed): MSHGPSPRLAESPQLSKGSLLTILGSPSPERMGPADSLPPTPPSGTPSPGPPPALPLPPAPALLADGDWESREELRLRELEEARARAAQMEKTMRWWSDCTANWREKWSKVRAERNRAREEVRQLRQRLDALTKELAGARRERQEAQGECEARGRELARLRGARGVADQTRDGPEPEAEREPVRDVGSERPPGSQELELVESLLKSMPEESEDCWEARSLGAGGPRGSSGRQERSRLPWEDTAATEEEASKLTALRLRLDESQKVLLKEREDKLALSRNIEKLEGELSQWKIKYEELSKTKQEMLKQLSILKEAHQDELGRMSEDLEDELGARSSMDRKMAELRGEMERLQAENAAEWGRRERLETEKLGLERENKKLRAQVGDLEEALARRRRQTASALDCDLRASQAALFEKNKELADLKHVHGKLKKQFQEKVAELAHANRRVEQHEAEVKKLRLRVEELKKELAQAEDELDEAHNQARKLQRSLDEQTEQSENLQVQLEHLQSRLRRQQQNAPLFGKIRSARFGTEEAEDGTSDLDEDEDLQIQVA

B1: THNS1006 (antibody, V domains shown)
VH: QVQLVESGGGVVQPGRSLRLSCAASGFTFSSYGMHWVRQAPGKGLEWVAIISYDGSNKYYADSVKGRFTISRDKSKNTLYLQMNSLRAEDTAVYYCAKSKGNYRDAMDVWGQGTTVTVSS
VL: SYVLTQPPSVSVAPGQTARITCGGNNIGSKSVHWYQQKPGQAPVLVVYDDSDRPSGIPERFSGSNSGNTATLTISRVEAGDEADYYCQVWDSSSDPWVFGGGTKLTVLG
notes: VH/VL only
Consider B1, for which the binding result in experiment [1] and in experiment [2] was “binds” each time.

B2: TKIC1006 (antibody, V domains shown)
VH: QVQLVQSGAEVKKPGSSVKVSCKTSGGTFSSYTISWVRQAPGQGPEWMGRIIPILNITNYAQKFQGRVTITADKSTSTTYMEMGSLRSEDTAVYFCARSFYGSGLQWGQGTLVTVSS
VL: EIVLTQSPGTLSLSPGERATLSCRASQSVSSSYLVWYQQKAGQAPRLLIYGASSRATGISDRFSGSGSGTDFTLTISRLEPEDFAVYYCQHFRSSPPTYTFGQGTKLEIKR
notes: VH/VL tied via antigen in summary, not by name in this stretch
As to B2, in experiment [3], the binding result is “binds”.

B3: TBLA1007 (antibody, V domains shown)
VH: QVQLVQSGAEVKKPGASVKVSCKASGYTFTNYGFSWVRQAPGQGLEWMGRITTYNRDTIYAQKFQGRVTMTTDTSTSTAYMELRSLRSDDTAVYFCARVVPGDSVYGAFDIWGQGTMVTVSS
VL: DIQMTQSPSSLSASVGDRVTITCRASQSISSYLNWYQQKPGRAPRLLIYAASRLQIGVPSRFSGSGSGTDFTLTISSLQPEDFATYYCQQSYRMPCSFGQGTKLEI
notes: VH/VL only
Turning to B3, the binding result (in experiment [4]; in the experiment with Reticulocalbin 3; in experiment [5]) was “binds” throughout.

B4: THNS1004 (antibody, V domains shown)
VH: EVQLVESGGGLVQPGGSLRLSCAASGFTFSSNWMSWVRQAPGKGLEWVANIKEDGSEKYYVDSVKGRFTIFRDNAKNSLYLQMNSLRAEDTAVYYCARVPSRYGRSRGAFDIWGQGTMVTVSS
VL: DIQMTQSPSSLSASVGDRVTITCRASQSISSYLNWYQQKPGKAPKLLIYAASSLQSGVPSRFSGSGSGTDFTLAISSLQPEDFATYYCHQTYSTRLTFGGGTEVEIKR
notes: VH/VL only
In the case of B4, the binding result in [6] is listed as “binds”.

B5: THNS1014 (antibody, V domains shown)
VH: HVQLLQSGPGLVKPSQTLSLTCAISGDSVSSTSGAWNWIRQSPSRGLEWLGRTYYRSQWMNDYAESVRSRITINPDTSKNQFSLQLKSVTPEDTAVYYCTRGWAFTSSDWGQGTQVTVSS
VL: EIVLTQSPGTLSLSPGERATLSCRASQSFDGKSLAWYQQKPGQTPRLLVYGASSRATGIPDRFGGSGSGTDFTLTISRLESEDFAVYFCQQYAYVPITFGQGTRLERKR
notes: VH/VL only
B5: the binding result in [7] and in experiment [8] was “binds” each time.

B6: THNS1003 (antibody, V domains shown)
VH: VVQLVESGGGLVQPGGSLRLSCAASGFTFNNYEMNWVRQAPGKGLEWVSYISSSGSTIYYADSVKGRFTISRDNAKNSLYLQMNSLRAEDTAVYYCARQMVTTRGYWGQGTLVTVSS
VL: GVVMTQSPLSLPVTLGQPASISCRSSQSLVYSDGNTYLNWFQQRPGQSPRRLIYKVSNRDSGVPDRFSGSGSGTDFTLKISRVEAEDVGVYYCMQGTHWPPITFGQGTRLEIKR
notes: VH/VL only
Take B6: the binding result in [9] and in [10] was “binds” in each case.
